Assay results reported in US6875571B2, “NF-AT polypeptides and polynucleotides and screening methods for immunosuppressive agents” (The Board of Trustees of the Leland Stanford Junior …, priority 1991, dated 2005).

Legend:
Format in all cases: cell-based, human
[1] = tested on: RSV promoter and enhancer; experiment: Secreted alkaline phosphatase reporter in Jurkat Tag cells, RSV reporter; conditions: transfection, no stimulation
Experimental: (§1) Jurkat Tag cells were transfected with vector plasmid (control) or with the dominant negative NF-ATc plasmid, plus the indicated secreted alkaline phosphatase reporter plasmid. Transfected cells were transferred to fresh culture medium 24 hours after transfection and secreted alkaline phosphatase activity was measured (Clipstone and Crabtree (1992) Nature 357: 695-698) 16 to 24 hours later, after stimulation with 1 uM ionomycin plus 20 ng/ml PMA (NF-AT and IL-2 reporters), 20 ng/ml PMA alone (AP-1 reporter) or no stimulation (RSV reporter). Bars indicate, secreted alkaline phosphatase activity from cells transfected with the dominant negative NF-ATc as a percentage of the activity from cells transfected in parallel with control plasmid, and represent data obtained from (n) independent transfections. The dominant negative NF-ATc consists of a carboxy terminal truncation of the epitope tagged NF-ATc expression plasmid extending to the PvuII site at amino acid 463.
(§2) The dominant negative NF-ATc used consists of a carboxy terminal truncation of the epitope tagged NF-ATc expression plasmid (supra) extending to the PvuII site at amino acid 463.

[2] = tested on: IL-2 promoter; experiment: Secreted alkaline phosphatase reporter in Jurkat Tag cells, IL-2 reporter; conditions: transfection, 1 uM ionomycin plus 20 ng/ml PMA
Experimental: as §1, §2

[3] = tested on: NF-AT site; experiment: Secreted alkaline phosphatase reporter in Jurkat Tag cells, NF-AT reporter; conditions: transfection, 1 uM ionomycin plus 20 ng/ml PMA
Experimental: as §1, §2

[4] = tested on: AP-1 site; experiment: Secreted alkaline phosphatase reporter in Jurkat Tag cells, AP-1 reporter; conditions: transfection, 20 ng/ml PMA alone
Experimental: as §1, §2

B1: dominant negative NF-ATc: carboxy terminal truncation of the epitope tagged NF-ATc expression plasmid extending to the PvuII site at amino acid 463 (protein, UniProt Q13469 1-463, looked up, fragment)
chain: MNAPERQPQPDGGDAPGHEPGGSPQDELDFSILFDYEYLNPNEEEPNAHKVASPPSGPAYPDDVLDYGLKPYSPLASLSGEPPGRFGEPDRVGPQKFLSAAKPAGASGLSPRIEITPSHELIQAVGPLRMRDAGLLVEQPPLAGVAASPRFTLPVPGFEGYREPLCLSPASSGSSASFISDTFSPYTSPCVSPNNGGPDDLCPQFQNIPAHYSPRTSPIMSPRTSLAEDSCLGRHSPVPRPASRSSSPGAKRRHSCAEALVALPPGASPQRSRSPSPQPSSHVAPQDHGSPAGYPPVAGSAVIMDALNSLATDSPCGIPPKMWKTSPDPSPVSAAPSKAGLPRHIYPAVEFLGPCEQGERRNSAPESILLVPPTWPKPLVPAIPICSIPVTASLPPLEWPLSSQSGSYELRIEVQPKPHHRAHYETEGSRGAVKAPTGGHPVVQLHGYMENKPLGLQIFIGTA
modifications: epitope tag
For B1, the “transcription directed by the RSV promoter and enhancer” value [1] was “relatively unaffected”, the “inhibition of IL-2 promoter function” value [2] was “more than 90%” and the “inhibition of transcription directed by the NF-AT site” value [3] was “more than 90%”. For the same molecule, the “transcription directed by the AP-1 site” value [4] was “relatively unaffected”.
